Substitutions are numbered along the chain they refer to. Names may count otherwise.

The chains are these.
T1: HR1C peptide of SARS-CoV-2 (residues 937-955), His6-tagged (SARS-CoV-2, UniProt P0DTC2)
T1 chain: SLSSTASALGKLQDVVNQN

B1: 3D1 mutant Y93A (light chain, CDRL3) (antibody, V domains shown)
VH: QVQLVQSGSELKKPGASVRISCKASGYSFTSLSMNWVRQAPGQGLEWMGWISTKSGDPTYAQAFTGRFVFSLDTSVNTAYLQINSLEAGDTAVYYCARGQPPVGWTFDYWGQGTLVTVSS
VL: QSALTQPPSASGSPGQSVTISCTGTSSDVGGYNYVSWYQQHPGKAPKLIIYEVSKRPSGVPDRFSGSKSGNTASLTVSGLQAEDEADYYCSSATSSSTLVFGGGTKLTVL
B2: 3D1 mutant W105A (heavy chain, CDRH3) (antibody, V domains shown)
VH: B1 VH with W105A
VL: B1 VL with A93Y
B3: 3D1 mutant N35A (heavy chain) (antibody, V domains shown)
VH: B1 VH with N35A
VL: B1 VL with A93Y

This assay concerns the target T1, HR1C peptide of SARS-CoV-2 (residues …). Description: BLI.
For the molecule B1, the binding result is recorded as “no binding”.

On to B2, for which the binding result is reported as “no binding”.

B3: the binding result was “no binding”.

Source of the values: article PMC12354777 (Nature Communications, 2025).
